5 substances from the supplement of paper PMC5998384 can be followed below.

Data set [1] concerns HeLa Kyoto. Briefly: thermal stability score vs G1/S (z-score of summed log2 fold changes over temperatures); higher = more thermally stable than in G1/S.
For data set [2], the system named is HeLa Kyoto. Briefly: solubility in G1/S (NP-40 vs SDS abundance) (log2 ratio); higher = more soluble. To be noted: cell cycle stage: G1/S.
For data set [3], the system named is HeLa Kyoto. Briefly: melting temperature (median over replicates), in situ; higher = more thermally stable.
In data set [4] the test system is HeLa Kyoto. Briefly: solubility change mitosis vs G1/S (difference of NP-40 vs SDS log2 ratios) (log2 ratio difference); higher = more soluble in mitosis.
Where [5] appears, read: cell cycle stage: early G1 (4.5 h after nocodazole release).
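For melting temperature (median over replicates), in situ in this document: HeLa Kyoto cells synchronized by double thymidine or nocodazole block, proteins quantified by TMT10plex mass spectrometry, three independent biological replicates.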
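For solubility change mitosis vs G1/S (difference of NP-40 vs SDS log2 ratios) in this document: synchronized HeLa Kyoto cells (double thymidine block for G1/S, nocodazole release for mitosis), protein amounts in NP-40 versus SDS lysates quantified by mass spectrometry, three biological replicates.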
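For solubility in G1/S (NP-40 vs SDS abundance) in this document: HeLa Kyoto cells arrested at G1/S by double thymidine block, proteins quantified by TMT10plex mass spectrometry in mild NP-40 versus SDS extracts, three biological replicates.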
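For thermal stability score vs G1/S (z-score of summed log2 fold changes over temperatures) in this document: synchronized HeLa Kyoto cells, proteins quantified by TMT10plex mass spectrometry, three biological replicates, mitosis taken 0.5 h after nocodazole release, G1/S directly after double thymidine block.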

For the substance “MRLGPRTAALGLLLLCAAAAGAGKAEELHYPLGERRSDYDREALLGVQEDVDEYVKLGHEEQQKRLQAIIKKIDLDSDGFLTESELSSWIQMSFKHYAMQEAKQQFVEYDKNSDDTVTWDEYNIQMYDRVIDFDENTALDDAEEESFRKLHLKDKKRFEKANQDSGPGLSLEEFIAFEHPEEVDYMTEFVIQEALEEHDKNGDGFVSLEEFLGDYRWDPTANEDPEWILVEKDRFVNDYDKDNDGRLDPQELLPWVVPNNQGIAQEEALHLIDEMDLNGDKKLSEEEILENPDLFLTSEATDYGRQLHDDYFYHDEL [RCN2]”, the thermal stability score was found to be 4.55 with HeLa Kyoto [1] (setting [5]) and 0.298 in the data set on HeLa Kyoto [1] (cell cycle stage: mitosis). Besides, in the data set with HeLa Kyoto [2], the “solubility in G1/S (log2)” value was 0.0519. The melting temperature stood at 54.1 °C in the data set on HeLa Kyoto [3] (cell cycle stage: G1/S) and 55.7 °C in the data set on HeLa Kyoto [3] (cell cycle stage: mitosis). In the data set on HeLa Kyoto [4], the “solubility change mitosis (log2)” value was determined as 0.0798.
Consider “MAASCLVLLALCLLLPLLLLGGWKRWRRGRAARHVVAVVLGDVGRSPRMQYHALSLAMHGFSVTLLGFCNSKPHDELLQNNRIQIVGLTELQSLAVGPRVFQYGVKVVLQAMYLLWKLMWREPGAYIFLQNPPGLPSIAVCWFVGCLCGSKLVIDWHNYGYSIMGLVHGPNHPLVLLAKWYEKFFGRLSHLNLCVTNAMREDLADNWHIRAVTVYDKPASFFKETPLDLQHRLFMKLGSMHSPFRARSEPEDPVTERSAFTERDAGSGLVTRLRERPALLVSSTSWTEDEDFSILLAALEKFEQLTLDGHNLPSLVCVITGKGPLREYYSRLIHQKHFQHIQVCTPWLEAEDYPLLLGSADLGVCLHTSSSGLDLPMKVVDMFGCCLPVCAVNFKCLHELVKHEENGLVFEDSEELAAQLQMLFSNFPDPAGKLNQFRKNLRESQQLRWDESWVQTVLPLVMDT [ALG1]”, for which the thermal stability score with HeLa Kyoto [1] (setting [5]) is 0.156; with HeLa Kyoto [1] (cell cycle stage: mitosis), -0.276. In addition, the “solubility in G1/S (log2)” value in the data set on HeLa Kyoto [2] was -0.369. Moreover, the melting temperature was determined as 52.4 °C with HeLa Kyoto [3] (cell cycle stage: G1/S) and 52.6 °C in the data set on HeLa Kyoto [3] (cell cycle stage: mitosis). For the same substance, the “solubility change mitosis (log2)” value in the data set on HeLa Kyoto [4] is -0.125.
As to LRP6, the thermal stability score was -4.02 in the data set on HeLa Kyoto [1] (setting [5]) and -2.07 in the data set with HeLa Kyoto [1] (cell cycle stage: mitosis). Further, the “solubility in G1/S (log2)” value in the data set with HeLa Kyoto [2] is 0.027. Moreover, the melting temperature in the data set with HeLa Kyoto [3] (cell cycle stage: G1/S) turned out to be 52.7 °C; in the data set with HeLa Kyoto [3] (cell cycle stage: mitosis), 53.1 °C. For the same substance, the “solubility change mitosis (log2)” value in the data set on HeLa Kyoto [4] was found to be 0.112.
For the substance “MLDFAIFAVTFLLALVGAVLYLYPASRQAAGIPGITPTEEKDGNLPDIVNSGSLHEFLVNLHERYGPVVSFWFGRRLVVSLGTVDVLKQHINPNKTSDPFETMLKSLLRYQSGGGSVSENHMRKKLYENGVTDSLKSNFALLLKLSEELLDKWLSYPETQHVPLSQHMLGFAMKSVTQMVMGSTFEDDQEVIRFQKNHGTVWSEIGKGFLDGSLDKNMTRKKQYEDALMQLESVLRNIIKERKGRNFSQHIFIDSLVQGNLNDQQILEDSMIFSLASCIITAKLCTWAICFLTTSEEVQKKLYEEINQVFGNGPVTPEKIEQLRYCQHVLCETVRTAKLTPVSAQLQDIEGKIDRFIIPRETLVLYALGVVLQDPNTWPSPHKFDPDRFDDELVMKTFSSLGFSGTQECPELRFAYMVTTVLLSVLVKRLHLLSVEGQVIETKYELVTSSREEAWITVSKRY [CYP20A1]”, the thermal stability score in the data set on HeLa Kyoto [1] (setting [5]) is 0.229; with HeLa Kyoto [1] (cell cycle stage: mitosis), -1.11. Also, the “solubility in G1/S (log2)” value in the data set on HeLa Kyoto [2] is -0.178. The melting temperature with HeLa Kyoto [3] (cell cycle stage: G1/S) was 54.4 °C; in the data set with HeLa Kyoto [3] (cell cycle stage: mitosis) it was 55.1 °C. The “solubility change mitosis (log2)” value in the data set with HeLa Kyoto [4] was -0.0969.
“MAGGPPKALPSTGPHSLRDMPHPLAGSSSEEAVGGDSTPSPDLLMARSFGDKDLILPNGGTPAGTSSPASSSSLLNRLQLDDDIDGETRDLFVIVDDPKKHVCTMETYITYRITTKSTRVEFDLPEYSVRRRYQDFDWLRSKLEESQPTHLIPPLPEKFVVKGVVDRFSEEFVETRRKALDKFLKRITDHPVLSFNEHFNIFLTAKDLNAYKKQGIALLTRMGESVKHVTGGYKLRTRPLEFAAIGDYLDTFALKLGTIDRIAQRIIKEEIEYLVELREYGPVYSTWSALEGELAEPLEGVSACIGNCSTALEELTDDMTEDFLPVLREYILYSDSMKSVLKKRDQVQAEYEAKLEAVALRKEDRPKVPADVEKCQDRMECFNADLKADMERWQNNKRQDFRQLLMGMADKNIQYYEKCLMAWESIIPLLQEKQEAK [SNX30]”: the results for the thermal stability score in the data set on HeLa Kyoto [1] (setting [5]) and with HeLa Kyoto [1] (cell cycle stage: mitosis) were 0.333 and 1.76, respectively. The “solubility in G1/S (log2)” value in the data set on HeLa Kyoto [2] amounted to 0.262. Besides, the melting temperature stood at 50.1 °C in the data set on HeLa Kyoto [3] (cell cycle stage: G1/S) and 50.7 °C in the data set with HeLa Kyoto [3] (cell cycle stage: mitosis). Besides, in the data set with HeLa Kyoto [4], the “solubility change mitosis (log2)” value is -0.31.
